Experimental data: patent publication US20250129178A1 (INNOBATION BIO, published 2025)
One block for each binder: values may come before it.

Experiments:
[1] = molecular target: T1, mesothelin protein (Acrobiosystems, cat #MSN-H5223) (UniProt Q13421 296-580); assay: ELISA, mesothelin peptide coated 100 ng/well, 100 ul hybridoma culture, anti-mIgG-HRP
T1 construct: The catalogue number is printed only for the immunogen; also called mesothelin peptide; MSLN
Protocol: First, in order to encode the mesothelin peptide, mesothelin peptide was dispensed into a 96-well plate at an amount of 100 ng/well and reacted overnight at 4° C. Then, after treatment with 1×PBST containing 3% BSA, it was blocked for 30 minutes at room temperature. […] The secondary antibody (anti-HRP, 1:10,000) was treated and reacted at room temperature for 30 minutes, washed three times with 1×PBST, and then treated with TMB for color development and reacted at room temperature for 5 minutes. Finally, the reaction was terminated by treatment with a stop solution of 1N H₂SO₄, and then the absorbance was measured at 450 nm.

[2] = molecular target: T2, mesothelin on NCI-H2052 mesothelioma cells overexpressing mesothelin (UniProt Q13421 296-598); assay: flow cytometry on NCI-H2052 cells, 1 ug antibody, PE goat anti-mouse IgG secondary
T2 construct: whole, on cells; NCI-H2052 is a human cell line and the positive control is anti-human mesothelin; also called H2052 cells; cells expressing mesothelin
T2 sequence (Q13421 other isoform, or with tags, fused parts or gaps limits assumed): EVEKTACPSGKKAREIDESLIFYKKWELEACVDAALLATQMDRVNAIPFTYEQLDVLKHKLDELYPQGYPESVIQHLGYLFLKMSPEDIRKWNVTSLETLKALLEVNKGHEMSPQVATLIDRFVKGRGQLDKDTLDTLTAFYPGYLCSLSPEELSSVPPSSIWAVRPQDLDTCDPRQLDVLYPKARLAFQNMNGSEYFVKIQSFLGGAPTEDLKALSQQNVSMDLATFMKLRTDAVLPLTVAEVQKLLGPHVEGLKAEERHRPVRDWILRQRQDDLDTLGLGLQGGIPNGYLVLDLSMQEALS

T1 sequence (Q13421 other isoform, or with tags, fused parts or gaps limits assumed): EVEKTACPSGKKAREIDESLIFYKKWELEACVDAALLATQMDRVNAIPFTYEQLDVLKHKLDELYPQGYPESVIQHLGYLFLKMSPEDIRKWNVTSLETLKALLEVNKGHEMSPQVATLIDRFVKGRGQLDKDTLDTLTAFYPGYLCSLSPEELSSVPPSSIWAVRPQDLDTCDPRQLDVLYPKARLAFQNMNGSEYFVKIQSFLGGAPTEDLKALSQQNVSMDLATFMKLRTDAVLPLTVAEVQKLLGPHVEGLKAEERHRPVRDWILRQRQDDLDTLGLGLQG

OD 450 measurements [1]: 1.35 OD 450 | Mean [2]: 1260 | Median [2]: 1120
B1: 4G11 antibody (antibody, V domains shown)
VH: EVQLQQSGPELVKTGDSVKISCKASGYSFTGYYMHWVKQSHGKSLEWIGYISCYNGATSYSQKFKGKATFTVDTSSSTAYMQFNSLTSEDSAVYYCARWDRDWFAYWGQGTLVTVSA
VL: DIVMTQSHKFMSTSVGDRVSITCKASQDVGIAVAWYQQKPGQSPKLLIYWASTRHTGVPDRFTGSGSGTDFTLTISNVQSEDLADYFCQQYSSYPFTFGSGTKLEIK
notes: Mouse hybridoma monoclonal antibody, detected with anti-mouse IgG

OD 450 measurements [1]: 0.758 OD 450 | Mean [2]: 77.7 | Median [2]: 56.2
B2: 9E8 antibody (antibody, V domains shown)
VH: EVQLQQSGPELVKPGASMKISCKASGYSFTGYTMNWVKQSHGKNLEWIGLINPYNGGTSYNQKFKGKATLTVDKSSSTAYMELLSLTSEDSAVYYCARVGGSSWYFDVWGAGTTVTVSS
VL: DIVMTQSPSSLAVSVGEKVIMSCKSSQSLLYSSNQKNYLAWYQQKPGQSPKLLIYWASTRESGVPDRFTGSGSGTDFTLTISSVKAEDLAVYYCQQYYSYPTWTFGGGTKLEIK
notes: Mouse hybridoma monoclonal antibody, detected with anti-mouse IgG; The printed VH and VL are identical to those of 3A8

OD 450 measurements [1]: 1.27 OD 450 | Mean [2]: 861 | Median [2]: 704
B3: 3A8 antibody (antibody, V domains shown)
VH: B2 VH
VL: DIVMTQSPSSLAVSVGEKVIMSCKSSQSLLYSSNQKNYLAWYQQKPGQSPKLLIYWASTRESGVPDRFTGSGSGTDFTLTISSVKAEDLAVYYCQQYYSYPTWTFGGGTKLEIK
notes: Mouse hybridoma monoclonal antibody; Tested as hybridoma culture supernatant in ELISA and at 1 ug in flow cytometry, detected with anti-mouse IgG; The printed VH and VL are identical to those of 9E8

OD 450 measurements [1]: 1.49 OD 450 | Mean [2]: 63.2 | Median [2]: 58.5
B4: 5A9 antibody (antibody, V domains shown)
VH: EVQLEESGPAVIKPSQSLSLTCIVSGFSITSSSYCWHWIRQPPGKGLEWMGRICYEGSIYYSPSIKSRFTISRDTSLNKFFIQLSSVTNEDTAMYYCSRENRLLKDAMDYWGQGTSVTVSS
VL: DIVMTQSPSSLAVSAGEKVTMSCKSSQSLLSSRTRKNYLAWYQQKPGQSPKLLIYWASTRESGVPDRFTGSGSGTDFTLTISSVQAEDLAVYYCKQSYNLRTFGGGTKLEIK
notes: as for B1

OD 450 measurements [1]: 1.64 OD 450 | Mean [2]: 81.4 | Median [2]: 69.1
B5: 9E11 antibody (antibody, V domains shown)
VH: QVQLKESGPGLVKPSQSLSLTCTVTGYSITSDYAWNWIRQFPGNKLEWMGYISYSGSTRYNPSLKSRISITRDTSKNQFFLQLNSVTTEDTATYYCARGAAGFAYWGQGTLVTVSA
VL: DIVMTQSPASQSASLGESVTITCLASQTIGTWLAWYQQKPGKSPQLLIYAATSLADGVPSRFSGSGSGTEFSFKISSLQAEDFVSYYCQQLYSTPWTFGGGTKLEIK
notes: as for B1

OD 450 measurements [1]: 1.52 OD 450 | Mean [2]: 528 | Median [2]: 444
B6: 7C3 antibody (antibody, V domains shown)
VH: EVQLQQSGAELMRPGASVKISCKATGYTFSAYWIEWVKQRPGHGLEWIGEILPGSGSTKYNEKFKGKATFTADTSSNTAYMQLSSLTSEDSAVYYCARGDYYAMDYWGQGTSVTVSS
VL: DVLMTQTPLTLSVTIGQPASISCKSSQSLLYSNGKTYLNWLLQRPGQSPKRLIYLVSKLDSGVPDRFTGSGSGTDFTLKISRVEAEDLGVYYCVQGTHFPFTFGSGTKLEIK
notes: as for B1
